Laboratory results published in PMC7846742.

Target: His6-OAZ-GSY-SPM-Ctag (human | Neisseria meningitidis serogroup B (strain MC58)) (UniProt Q9JYV5)
Assay: cross-linking; NeissLock: Ca2+-induced aspartic anhydride on OAZ reacts with the docked partner; purified proteins mixed at 10 µM each or as indicated (AZI 2.5 µM each; Fig. 4b 0.5 µM each; 30 µM ODC with 10 µM OAZ-Y-SPM), 37 °C, HBS pH 7.4 with 2 mM TCEP, 10 mM CaCl2 unless varied (pH 6.5-8.5, 0.5-10 mM Ca2+, TBS, lyophilised probe); SDS-PAGE with Coomassie, intact ESI-MS, tryptic LC-MS/MS

Sequence of His6-AZI-Ctag (human Antizyme Inhibitor) (O14977 whole entry): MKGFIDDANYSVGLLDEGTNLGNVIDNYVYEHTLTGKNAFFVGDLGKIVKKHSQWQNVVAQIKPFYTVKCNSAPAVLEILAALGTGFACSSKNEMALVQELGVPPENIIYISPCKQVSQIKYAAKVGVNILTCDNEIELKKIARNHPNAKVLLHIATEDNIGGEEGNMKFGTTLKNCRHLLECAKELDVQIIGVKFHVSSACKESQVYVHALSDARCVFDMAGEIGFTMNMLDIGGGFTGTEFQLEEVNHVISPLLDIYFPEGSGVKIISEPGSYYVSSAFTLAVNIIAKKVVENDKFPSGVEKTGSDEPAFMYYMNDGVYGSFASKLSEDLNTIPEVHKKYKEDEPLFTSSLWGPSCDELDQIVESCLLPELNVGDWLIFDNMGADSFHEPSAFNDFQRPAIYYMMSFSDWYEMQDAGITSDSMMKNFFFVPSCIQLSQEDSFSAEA

His6-AZI-Ctag (human Antizyme Inhibitor) (from UniProt O14977 1-448) (natural protein)
coupling yield: 80%
percent of AZI conjugated within 10 min: > 50%
